We go through 14 molecules from patent US20050154189A1 (MAXYGEN, published 2005).

The target in this test is T1, Soluble CTLA-4-Ig (human, UniProt P16410 36-161, FITC-conjugated in the two-colour FACS assays; unlabelled and detected with FITC goat anti-human IgG in the concentration-dependent assay).
T1 construct: extracellular domain; Bought from R&D Systems; also called sCTLA-4-Ig; CTLA-4-Ig Fc; not shown: Fc portion of human IgG1
As to the kind of experiment: two-colour FACS profile on transfected cells; score of preference for CTLA-4-Ig over CD28-Ig vs WT hB7-1.

T1 sequence (P16410 36-161): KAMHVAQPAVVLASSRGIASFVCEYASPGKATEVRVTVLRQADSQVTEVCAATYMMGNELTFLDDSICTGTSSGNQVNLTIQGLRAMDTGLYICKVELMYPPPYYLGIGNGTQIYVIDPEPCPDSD

B1: Round 2 CTLA4BP 5x9-d10 (ligand)
chain: VIHVTKEVKEVATLSCGLNVSVEELAQTRIYWQKGKKMVLTMMSGDMNIWPEYKNRTIFDITNNLSIVILALRPSDEGTYECVVLEYEKDAFKREHLAEVMLSVKADFPTPSISDFEIPPSNIRRIICSTSGGFPEPHLSWLENGEELNAINTTASQDPGTELYTVSSKLDFNMTTNHSFMCLIKYGHLRVNQTFNWNTPKQEHFPDNLLPSWAITLISVNGIFVICCLTHCFAPRCRERRRNERLRRESARPV
B1: the “Binding Score” value was 1.

B2: Round 2 CTLA4BP-5x4-12c (ligand)
chain: VIHVTKEVKEVATLSCGHNVSVEELAQTRIHWQKEKKMVLTMMSGDMNIWPEYKNRTIFDITNNLSIVILALRPSDEGTYECVVLKYEKDAFKREHLAEVMLSVKADFPTPSISDFEIPPSNIRRIICSTSGGFPEPHLFWLENGEELNAINTTVSQDPETELYTVSSKLDFNMTTNHSFMCLIKYGHLRVNQTFNWNTPKQEHFPDNLLPSWAITLISANGIFVICCLTYRFAPRCRERKSNETLRRESVRPV
notes: Full-length clone on transiently or stably transfected 293 cells; The end 288 is the end of the entry as counted; also called R2 CTLA-4BP 5x4-12c; clone 12c
Take B2: the “Binding Score” value was 2.

B3: Round 2 CTLA4BP-5x2-3c (ligand)
chain: VIHVTREVKEVATLSCGHNVSVEELAQTRIHWQKEKKMVLTMMSGDMNIWPEYKNRTIFDITNNLSIVILALRPSDEGTYECVVLKYEKDAFKREHLAEVMLSVKADFPTPSISDFEIPTSNIRRIICSTSGGFPEPHLSWLENGEELNAINTTVSQDPETGLYTVSSKLDFNMTTNHSFMCLIKYGHLRVNQTFNWNTPKQEHFPDNLLPSWAITLISVNGIFVICCLTYCFAPRCRERRRNERLRRESVCPV
In the case of B3, the “Binding Score” value turned out to be 2.

B4: Round 2 CTLA4BP-5x3-10e (ligand)
chain: VIHVTKEVKEVATLSCGHNVSVEELAQTRIYWQKEKKMVLTMMSGDMNIWPEYKNRTIFDITNNLSIVILALRPSDEGTYECVVLEYEKDAFKREHLAEVTLSVKADFPTPSISDFEIPPSNIRRIICSTSGGFPEPHLFWLENGEELNAINTTVSQDPETELYAVSSKLDFNMTTNHSFMCLIKYGHLRVNQTFNWNTPKQEHFPDNLLPSWAITLISANGIFVICCLTYCFAPRCRERKSNERLRRESVHPV
As for B4, the “Binding Score” value came out at 2.

B5: Round 2 CTLA4BP-5x2-4c (ligand)
chain: VIHVTKEVKEVATLSCGLNVSVEELAQTRIYWQKEKKMVLTMMSGDMNIWPEYKNRTIFDITNNLSIVILALRPSDEGTYECVVLEYEKDAFKREHLAEVMLSVKADFPTPSISDFEIPPSNIRRIICSTSGGFPEPHLSWLENGEELNGINTTVSQDPETELYTVSSKLDFNMTTNRSFVCLIKYGHLRVNQTFNWNTPKQEHFPDNLLPSWAITLISVNGIFVICCLTYCFAPRCRERRRNERLRRESVHPV
Regarding B5, the “Binding Score” value came out at 1.

B6: Round 2 CTLA4BP-5x3-6f (ligand)
chain: VIHVTKEVKEVATLSCGHNVSVEELAQTRIYWQKGKKMVLTMMSGDMNIWPEYKNRTIFDITNNLSIVILALRPSDEGTYECVVLEYEKDAFKREHLAEVMLSVKADFPTPSISDFEIPTSNIRRIICSTSGGFPEPHLSWLENGEELNAINTTASQDPETELYTVSSKLDFNMTTNHSFMCLIKYGHLRVNQTFNWNTPKQEHFPDNLLPSWAITLISANGIFVICCLAYCFAPGCRERKSNERLRRESVRPV
On to B6, for which the “Binding Score” value was determined as 2.

B7: Round 2 CTLA4BP-5x2-7b (ligand)
chain: VIHVTKEVKEVATLSCGHNVSVEELAQTRIHWQKEKKMVLTMMSGDMNIWPEYKNRTIFDITNNLSIVILALRPSDEGTYECVVLKYEKDAFKREHLAEVTLSVKAGFPTPSITDFEIPPSNIRRIICSTSGGFPEPHLSWLENGEELNAINTTVSQDPGTELYTVSSKLDFNMTANHSFVCLIKYGHLRVNQTFNWNTPKQEHFPDNLLPSWAITLISANGIFVICCLTYCFAPRCRERRRNERLRRESVRPV
Take B7: the “Binding Score” value turned out to be 1.

B8: Round 2 CTLA4BP-5x4-1f (ligand)
chain: VIHVTKEVKEVATLSCGHNVSVEELAQTRIHWQKEKKMVLTMMSGDMNIWPEYKNRTIFDITNNLSIVILALRPSDEGTYECVVLKYEKDAFKREHLAEVMLSVKADFPTPSISDFEIPTSNIRRIICSTSGGFPEPHLFWLENGEELNAINTTVSQDPETELYTVSSKLDFNMTTNHSFMCLIKYGHLRVNQTFNWNTPKQEHFPDNLLPSWAITLISVNGIFVICCLTYCFAPRCRERRRNERLRRESVCPV
As for B8, the “Binding Score” value worked out at 2.

B9: Round 2 CTLA4BP-5x3-11b (ligand)
chain: VIHVTKEVKEVATLSCGHNVSVEELAQTRIYWQKEKKMVLTMMSGDMNIWPEYKNRTIFDITNNLSIVILALRSSDEGTYECVVLKYEKDAFKREHLAEVTLSVKADFPTPSITDFEIPPSNIRRIICSTSGGFPEPHLSWLENGEELNAISTTVSQDPETELYTVSSKLDFNMTTNRSFVCLIKYGHLRVNQTFNWNTPKQEHFPDNLLPSWAITLISVNGIFVICCLTYCFAPRCRERRSNERLRRESVRPV
Regarding B9, the “Binding Score” value amounted to 1.

B10: Round 2 CTLA4BP-5x2-2g (ligand)
chain: VIHVTKEVKEVATLSCGHNVSVEELAQTRIHWQKEKKMVLTMMSGDMNIWPEYKNRTIFDITNNLSIVILALRPSDEGTYECVVLKYEKDAFKREHLAEVMLSVKADFPTPSITDFEIPTSNIRRIICSTSGGFPEPHLSWLENGEELNAINTTVSQDPETELYTVSSKLDFNMTTNHSFMCLIKYGHLRVNQTFNWNTPKQEHFPDNLLPSWAITLISVNGIFVICCLTYRFAPRCRERKSNERLRRESVRPV
Regarding B10, the “Binding Score” value is 2.

B11: Round 2 CTLA4BP-5X2-12F (ligand)
chain: VIHVTKEVKEVATLSCGHNVSVEELAQTRIHWQKEKKMVLTMMSGDMNIWPEYKNRTIFDITNNLSIVILALRPSDEGTYECVVLKYEKDAFKREHLAEVTLSVKADFPTPSITDFEIPPSNIKRIICSTSGGFPEPHLSWLENGEELNAINTTVSQDPETELYTVSSKLDFNMTTNHSFMCLIKYGHLRVNQTFNWNTPKQEHFPDNPLPSWAITLISANGIFVICCLTYCFAPRCRERRRNETLRRESVRPV
For B11, the “Binding Score” value stood at 1.

B12: Round 2 CTLA4BP-5x2-8c (ligand)
chain: VIHMTKEVKEVATLSCGHNVSVEELAQTRIYWQKEKKMVLTMMSGDMNIWPEYKNRTIFDITNNLSIVILALRPSDEGTYECVVLKYEKDAFKQEHLAEVMLSVKADFPTPSITDFEIPPSNIRRIICSTSGGFPEPHLFWLENGEELNAINTTVSQDPETELYAVSSKLDFNMTTNHSFVCLIKYGHLRVNQTFNWNTPKQEHFPDNLLPSWAITLISANGIFVICCLTYCFAPRCRERRRNERLRRESVHPV
Regarding B12, the “Binding Score” value was 2.

B13: Round 2 CTLA4BP-5x5-2e (ligand)
chain: VIHVTKEVKEVATLSCGLNVSVEELAQTRIHWQKEKKMVLTMMSGDMNIWPEYKNRTIFDITNNLSIVILALRPSDEGTYECVVLKYEKDAFKREHLAEVMLSVKADFPTPSISDFEIPPSNIRRIICSTSGGFPEPHLSWLENGEELNAINTTVSQDPETELYAVSSKLDFNMTTNHSFMCLIKYGHLRVNQTFNWNTPKQEHFPDNLLPSWAITLISVNGIFVICCLTYCFAPRCRERRRNETLRRESVRPV
With B13, the “Binding Score” value stood at 2.

B14: Round 2 CTLA4BP-5x4-11d (ligand)
chain: VIHVTKEVKEVATLSCGLNVSVEELAQTRIHWQKEKKMVLTMMSGDMNIWPEYKNRTIFDITNNLSIVILALRPSDEGTYECVVLKYDKDAFKREHLAEVTLSVKADFPTPSISDFEIPPSNIRRIICSTSGGFPEPHLSWLENGEELNAINTTVSQDPETELYTVSSKLDFNMTANHSFVCLIKYGHLRVNQTFNWNTPKQEHFPDNLLPSWAITLISVNGIFVICCLTYRFAPRCRERKSNERLRRESVRPV
As to B14, the “Binding Score” value amounted to 2.
